Assay results: IntAct's records for PubMed 34400613

B1: Ras GTPase-activating protein-binding protein 2 (Homo sapiens), Q9UN86 (parent)
chain: MVMEKPSPLLVGREFVRQYYTLLNKAPEYLHRFYGRNSSYVHGGVDASGKPQEAVYGQNDIHHKVLSLNFSECHTKIRHVDAHATLSDGVVVQVMGLLSNSGQPERKFMQTFVLAPEGSVPNKFYVHNDMFRYEDEVFGDSEPELDEESEDEVEEEQEERQPSPEPVQENANSGYYEAHPVTNGIEEPLEESSHEPEPEPESETKTEELKPQVEEKNLEELEEKSTTPPPAEPVSLPQEPPKAFSWASVTSKNLPPSGTVSSSGIPPHVKAPVSQPRVEAKPEVQSQPPRVREQRPRERPGFPPRGPRPGRGDMEQNDSDNRRIIRYPDSHQLFVGNLPHDIDENELKEFFMSFGNVVELRINTKGVGGKLPNFGFVVFDDSEPVQRILIAKPIMFRGEVRLNVEEKKTRAARERETRGGGDDRRDIRRNDRGPGGPRGIVGGGMMRDRDGRGPPPRGGMAQKLGSGRGTGQMEGRFTGQRR

Variants of: B1
Conditions: with ncap_sars2 N

How did the “effect of a mutation on the interaction” value turn out when F15A;F33A;F124A was run?
Its value is “disrupting interaction strength”.

Which “effect of a mutation on the interaction” value does the source give for F15A here?
Its value is “decreasing interaction strength”.

With F15A;F33A as the variant, how does the “effect of a mutation on the interaction” value read?
The value was “decreasing interaction strength”.
